One block for each substance: values may come before it.
What was measured:
[1] = molecular target: SLy1 SAM domain construct SAMwt (SLy1 residues P254-E321 with an N-terminal glycine from the tag) (mouse) (UniProt Q8K352); assay: MST; Alexa Fluor 488 labelled protein kept constant (SAMwt 70 nM, SAMlg 60 nM), total protein varied (SAMwt 1.1-824 µM, SAMlg 0.2-250 µM); standard buffer pH 6.4, room temperature; fit to a monomer-dimer equilibrium; dimer to monomers
[2] = molecular target: SLy1 SAM domain construct SAMwt (SLy1 residues P254-E321 with an N-terminal glycine from the tag) (mouse) (UniProt Q8K352); assay: AUC; sedimentation equilibrium, 30 °C, standard buffer (50 mM potassium phosphate, 20 mM NaCl, 0.1 mM EDTA, pH 6.4) without NaN3; three loading concentrations (SAMwt 60, 120, 300 µM; SAMlg 31, 64, 98 µM) at several speeds; global fit to a monomer-dimer equilibrium; dimer to monomers
TEL SAM (Homo sapiens) = TEL SAM (Homo sapiens) (UniProt P41212); details: cited from earlier work
[3] = molecular target: Yan SAM (Drosophila melanogaster) (UniProt Q01842); details: cited from earlier work

Yan SAM, sequence (Q01842 33-117): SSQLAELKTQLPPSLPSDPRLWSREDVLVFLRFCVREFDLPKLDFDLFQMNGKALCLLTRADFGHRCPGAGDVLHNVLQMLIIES
TEL SAM, sequence (P41212 40-124): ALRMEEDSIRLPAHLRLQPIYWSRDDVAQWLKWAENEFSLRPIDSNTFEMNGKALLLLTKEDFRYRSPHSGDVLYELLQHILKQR

Kd [1]: 153 µM
Ka [2]: 8500 M⁻¹
Kd [2]: 117 µM
stoichiometry N [2]: 2
Substance: SLy1 SAM domain construct SAMwt (SLy1 residues P254-E321 with an N-terminal glycine from the tag) (from UniProt Q8K352 254-321) (domain or fragment)

Substance: TEL SAM (from UniProt P41212)
Kd (TEL SAM (Homo sapiens)): 0.0017 µM

Substance: Yan SAM (from UniProt Q01842)
Kd [3]: 11 µM
